In publication PMC9482650, “Quantitative fragmentomics allow affinity mapping of interactomes” (Nature Communications, 2022):

T1: MPDZ_10, O75970
T1 sequence (O75970 1624-1722, limits assumed, looked up): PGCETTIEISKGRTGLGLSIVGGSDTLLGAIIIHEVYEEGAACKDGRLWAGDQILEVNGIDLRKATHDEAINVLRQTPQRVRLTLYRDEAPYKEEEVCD

T2: TJP3_3, O95049
T2 sequence (O95049 375-456, limits assumed, looked up): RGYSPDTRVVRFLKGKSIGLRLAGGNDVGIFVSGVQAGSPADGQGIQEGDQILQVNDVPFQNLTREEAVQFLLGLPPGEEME

T3: NHERF3_1, Q5T2W1
T3 sequence (Q5T2W1 4-100, limits assumed, looked up): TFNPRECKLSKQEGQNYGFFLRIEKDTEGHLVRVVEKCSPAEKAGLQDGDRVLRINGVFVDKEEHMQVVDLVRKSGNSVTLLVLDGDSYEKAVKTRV

T4: RHPN1, Q8TCX5
T4 sequence (Q8TCX5 508-602, limits assumed, looked up): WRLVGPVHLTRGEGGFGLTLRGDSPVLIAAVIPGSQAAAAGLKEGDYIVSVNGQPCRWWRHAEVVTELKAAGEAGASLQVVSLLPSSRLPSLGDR

T5: SNTG1, Q9NSN8
T5 sequence (Q9NSN8 52-150, limits assumed, looked up): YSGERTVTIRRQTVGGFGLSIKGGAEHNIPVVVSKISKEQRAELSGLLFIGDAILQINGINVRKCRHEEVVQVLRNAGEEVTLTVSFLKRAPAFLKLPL

T6: DLG3_1, Q92796
T6 sequence (Q92796 125-227, limits assumed, looked up): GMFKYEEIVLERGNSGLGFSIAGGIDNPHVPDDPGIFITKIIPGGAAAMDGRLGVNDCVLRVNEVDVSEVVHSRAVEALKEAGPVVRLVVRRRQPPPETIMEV

T7: SYNJ2BP, P57105
T7 sequence (P57105 8-110, limits assumed, looked up): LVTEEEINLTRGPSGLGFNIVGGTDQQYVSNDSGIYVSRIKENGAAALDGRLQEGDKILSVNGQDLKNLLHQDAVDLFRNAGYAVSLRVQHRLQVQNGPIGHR

T8: DLG3_2, Q92796
T8 sequence (Q92796 221-321, limits assumed, looked up): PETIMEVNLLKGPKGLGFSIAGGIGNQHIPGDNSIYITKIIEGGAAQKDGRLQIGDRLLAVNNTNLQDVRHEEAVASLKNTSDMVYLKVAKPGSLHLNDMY

T9: TX1BP3, O14907
T9 sequence (O14907 10-122, limits assumed, looked up): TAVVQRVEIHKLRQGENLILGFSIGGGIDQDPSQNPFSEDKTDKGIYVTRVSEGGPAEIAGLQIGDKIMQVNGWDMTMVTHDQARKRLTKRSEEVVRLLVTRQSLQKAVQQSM

T10: APBA2_1, Q99767
T10 sequence (Q99767 563-664, limits assumed, looked up): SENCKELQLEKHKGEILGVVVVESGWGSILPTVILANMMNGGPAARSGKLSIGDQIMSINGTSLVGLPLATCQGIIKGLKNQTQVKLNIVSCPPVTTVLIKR

T11: SNTA1, Q13424
T11 sequence (Q13424 82-180, limits assumed, looked up): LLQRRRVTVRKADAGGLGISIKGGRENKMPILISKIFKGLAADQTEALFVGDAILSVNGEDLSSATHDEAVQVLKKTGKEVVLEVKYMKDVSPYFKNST

T12: SHANK1, Q9Y566
T12 sequence (Q9Y566 658-767, limits assumed, looked up): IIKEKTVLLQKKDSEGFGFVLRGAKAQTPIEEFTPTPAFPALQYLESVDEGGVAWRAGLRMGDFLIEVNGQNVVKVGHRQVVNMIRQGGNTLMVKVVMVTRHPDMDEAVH


Assays:
Test in all cases: holdup assay
Set-up in all cases: key: below the threshold = too weak to quantify, mostly under pKd 3.1 to 4
Conditions in all cases: plain residues with an end cap or a label only (N-terminal biotin on a linker: ado-ado)
MPDZ_10, O75970 = biological target: T1, MPDZ_10, O75970
TJP3_3, O95049 = biological target: T2, TJP3_3, O95049
GRID2IP_1, A4D2P6 = biological target: GRID2IP_1, A4D2P6
NHERF3_1, Q5T2W1 = biological target: T3, NHERF3_1, Q5T2W1
GOPC, Q9HD26 = biological target: GOPC, Q9HD26
IL16_4, Q14005 = biological target: IL16_4, Q14005
SCRIB_1, Q14160 = biological target: SCRIB_1, Q14160
FRMPD3, Q5JV73 = biological target: FRMPD3, Q5JV73
RHPN1, Q8TCX5 = biological target: T4, RHPN1, Q8TCX5
SNTG1, Q9NSN8 = biological target: T5, SNTG1, Q9NSN8
DLG3_1, Q92796 = biological target: T6, DLG3_1, Q92796
SYNJ2BP, P57105 = biological target: T7, SYNJ2BP, P57105
NHERF4_1, Q86UT5-2 = biological target: NHERF4_1, Q86UT5-2
GRASP, Q7Z6J2 = biological target: GRASP, Q7Z6J2
ARHGEF12, Q9NZN5-2 = biological target: ARHGEF12, Q9NZN5-2
MAST2, Q6P0Q8 = biological target: MAST2, Q6P0Q8
PDZRN4_1, Q6ZMN7 = biological target: PDZRN4_1, Q6ZMN7
DLG3_2, Q92796 = biological target: T8, DLG3_2, Q92796
TX1BP3, O14907 = biological target: T9, TX1BP3, O14907
LIMK2, P53671 = biological target: LIMK2, P53671
MAGI1_2, Q96QZ7 = biological target: MAGI1_2, Q96QZ7
APBA2_1, Q99767 = biological target: T10, APBA2_1, Q99767
CASK, O14936 = biological target: CASK, O14936
SNTA1, Q13424 = biological target: T11, SNTA1, Q13424
DLG5_1, Q8TDM6 = biological target: DLG5_1, Q8TDM6
SHANK1, Q9Y566 = biological target: T12, SHANK1, Q9Y566

IL16_4, Q14005, sequence (Q14005 1229-1329): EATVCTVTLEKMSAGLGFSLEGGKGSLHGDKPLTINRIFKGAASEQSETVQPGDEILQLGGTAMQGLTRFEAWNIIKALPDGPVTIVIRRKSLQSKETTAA
PDZRN4_1, Q6ZMN7, sequence (Q6ZMN7 213-318): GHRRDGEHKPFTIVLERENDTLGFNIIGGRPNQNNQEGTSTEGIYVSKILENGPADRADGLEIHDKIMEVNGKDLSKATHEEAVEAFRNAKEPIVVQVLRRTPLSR
MAGI1_2, Q96QZ7, sequence (Q96QZ7 456-580): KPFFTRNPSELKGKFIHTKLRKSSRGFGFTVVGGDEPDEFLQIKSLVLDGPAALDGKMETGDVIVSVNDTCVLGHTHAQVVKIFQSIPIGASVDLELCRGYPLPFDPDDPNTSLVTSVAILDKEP
SCRIB_1, Q14160, sequence (Q14160 718-814): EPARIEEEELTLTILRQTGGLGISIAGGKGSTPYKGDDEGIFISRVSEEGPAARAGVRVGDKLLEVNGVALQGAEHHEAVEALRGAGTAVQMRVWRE
CASK, O14936, sequence (O14936 487-570): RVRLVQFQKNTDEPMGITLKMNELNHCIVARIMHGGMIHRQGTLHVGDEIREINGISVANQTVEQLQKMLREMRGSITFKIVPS
GRID2IP_1, A4D2P6, sequence (A4D2P6 1-87): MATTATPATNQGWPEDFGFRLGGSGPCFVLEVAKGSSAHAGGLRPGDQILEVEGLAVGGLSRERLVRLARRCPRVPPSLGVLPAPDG
ARHGEF12, Q9NZN5-2, sequence (Q9NZN5 other isoform, or with tags, fused parts or gaps): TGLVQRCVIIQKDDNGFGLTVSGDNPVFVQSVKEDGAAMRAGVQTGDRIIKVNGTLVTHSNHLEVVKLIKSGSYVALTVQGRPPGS
DLG5_1, Q8TDM6, sequence (Q8TDM6 617-713): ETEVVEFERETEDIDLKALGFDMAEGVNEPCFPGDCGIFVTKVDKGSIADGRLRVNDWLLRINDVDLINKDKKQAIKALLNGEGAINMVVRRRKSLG
GRASP, Q7Z6J2, sequence (Q7Z6J2 96-193): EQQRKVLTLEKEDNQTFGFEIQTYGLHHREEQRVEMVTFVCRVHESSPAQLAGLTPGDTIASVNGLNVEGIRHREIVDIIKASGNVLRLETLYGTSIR
LIMK2, P53671, sequence (P53671 143-248): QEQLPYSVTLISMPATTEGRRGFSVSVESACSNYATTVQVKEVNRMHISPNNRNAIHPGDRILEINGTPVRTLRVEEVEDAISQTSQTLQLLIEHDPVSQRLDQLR
FRMPD3, Q5JV73, sequence (Q5JV73 12-100): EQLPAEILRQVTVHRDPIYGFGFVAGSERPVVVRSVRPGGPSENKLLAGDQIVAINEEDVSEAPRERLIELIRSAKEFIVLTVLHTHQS
MAST2, Q6P0Q8, sequence (Q6P0Q8 1099-1202): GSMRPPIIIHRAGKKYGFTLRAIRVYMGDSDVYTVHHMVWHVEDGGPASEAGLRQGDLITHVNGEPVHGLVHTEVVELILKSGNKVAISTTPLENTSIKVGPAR
NHERF4_1, Q86UT5-2, sequence (Q86UT5 other isoform, or with tags, fused parts or gaps): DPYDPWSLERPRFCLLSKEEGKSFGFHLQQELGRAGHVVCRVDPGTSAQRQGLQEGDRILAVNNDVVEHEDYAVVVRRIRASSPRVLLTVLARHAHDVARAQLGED

Binder	pKd (MPDZ_10, O75970)	pKd (TJP3_3, O95049)	pKd (GRID2IP_1, A4D2P6)	pKd (NHERF3_1, Q5T2W1)	pKd (GOPC, Q9HD26)	pKd (IL16_4, Q14005)	pKd (SCRIB_1, Q14160)	pKd (FRMPD3, Q5JV73)	pKd (RHPN1, Q8TCX5)	pKd (SNTG1, Q9NSN8)	pKd (DLG3_1, Q92796)	pKd (SYNJ2BP, P57105)	pKd (NHERF4_1, Q86UT5-2)	pKd (GRASP, Q7Z6J2)	pKd (ARHGEF12, Q9NZN5-2)	pKd (MAST2, Q6P0Q8)	pKd (PDZRN4_1, Q6ZMN7)	pKd (DLG3_2, Q92796)	pKd (TX1BP3, O14907)	pKd (LIMK2, P53671)	other results
REVVMRVTTV [MARCHF9, Q86YJ5]	4.4	below the threshold	below the threshold	below the threshold	4.9	3.53	4.72	below the threshold	3.91	4.89	4.38	4.82	3.47	4.57	4.8	5.59	3.86	5.23	4.61	below the threshold	pKd (MAGI1_2, Q96QZ7): 4.84; pKd (APBA2_1, Q99767): below the threshold; pKd (CASK, O14936): 3.5; pKd (SNTA1, Q13424): 5.27; pKd (DLG5_1, Q8TDM6): below the threshold; pKd (SHANK1, Q9Y566): below the threshold
VISERNSTTV [C3AR1, Q16581]	below the threshold	below the threshold	below the threshold	below the threshold	3.92	below the threshold	3.72	below the threshold	4.16	below the threshold	4.06	4.68	below the threshold	4.37	4.33	5.2	3.63	4.42	below the threshold	below the threshold	pKd (MAGI1_2, Q96QZ7): 4.4; pKd (APBA2_1, Q99767): below the threshold; pKd (CASK, O14936): below the threshold; pKd (SNTA1, Q13424): 3.79; pKd (DLG5_1, Q8TDM6): below the threshold; pKd (SHANK1, Q9Y566): 3.49
PDGEMMEVLI [AMOTL1, Q8IY63]	below the threshold	below the threshold	below the threshold	4.05	below the threshold	below the threshold	below the threshold	below the threshold	below the threshold	3.63	below the threshold	below the threshold	below the threshold	below the threshold	below the threshold	3.73	below the threshold	4.06	below the threshold	below the threshold	pKd (MAGI1_2, Q96QZ7): below the threshold; pKd (APBA2_1, Q99767): below the threshold; pKd (CASK, O14936): below the threshold; pKd (SNTA1, Q13424): below the threshold; pKd (DLG5_1, Q8TDM6): below the threshold; pKd (SHANK1, Q9Y566): below the threshold
WRSKRTDTLL [RAMP3, O60896]	below the threshold	below the threshold	below the threshold	5.16	3.61	below the threshold	3.92	below the threshold	4.04	below the threshold	below the threshold	3.84	4.33	below the threshold	4.03	5.45	3.75	below the threshold	4.13	below the threshold	pKd (MAGI1_2, Q96QZ7): 4.43; pKd (APBA2_1, Q99767): below the threshold; pKd (CASK, O14936): below the threshold; pKd (SNTA1, Q13424): 3.59; pKd (DLG5_1, Q8TDM6): below the threshold; pKd (SHANK1, Q9Y566): below the threshold
